# Laboratory results taken from patent publication US20250144178A1, “PHARMACEUTICAL COMPOSITION FOR CANCER TREATMENT COMPRISING FUSION PROTEIN INCLUDING IL-12 AND ANTI-FAP ANTIBODY AND ANTICANCER AGENT” (KANAPH THERAPEUTICS INC., priority 2022, published 2025).
# Like-named read-outs stand apart in the source and are kept apart here.
# T1: recombinant mouse FAP (Mus musculus, UniProt P97321)
# T1 sequence (P97321 1-761): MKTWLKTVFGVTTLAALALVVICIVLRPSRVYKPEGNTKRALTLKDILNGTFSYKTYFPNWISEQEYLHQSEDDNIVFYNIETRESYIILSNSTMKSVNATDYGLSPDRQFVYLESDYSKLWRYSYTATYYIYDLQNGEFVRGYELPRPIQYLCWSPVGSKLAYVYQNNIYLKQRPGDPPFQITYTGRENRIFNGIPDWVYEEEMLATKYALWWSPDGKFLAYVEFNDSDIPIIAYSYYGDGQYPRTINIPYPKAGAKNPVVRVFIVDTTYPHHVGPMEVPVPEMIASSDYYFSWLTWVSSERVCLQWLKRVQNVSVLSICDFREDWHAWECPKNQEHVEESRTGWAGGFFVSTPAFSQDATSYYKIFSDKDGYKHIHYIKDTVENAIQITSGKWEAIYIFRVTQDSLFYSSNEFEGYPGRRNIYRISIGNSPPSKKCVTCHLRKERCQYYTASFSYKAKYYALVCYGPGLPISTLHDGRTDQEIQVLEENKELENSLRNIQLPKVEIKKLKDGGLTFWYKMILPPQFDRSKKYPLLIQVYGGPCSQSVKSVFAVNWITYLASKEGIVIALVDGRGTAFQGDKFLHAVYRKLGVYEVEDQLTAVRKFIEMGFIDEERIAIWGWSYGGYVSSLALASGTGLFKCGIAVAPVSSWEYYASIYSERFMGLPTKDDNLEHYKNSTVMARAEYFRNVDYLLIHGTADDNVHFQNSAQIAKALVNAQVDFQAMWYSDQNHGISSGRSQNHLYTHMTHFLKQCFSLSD
# Key:
# [1] = target: T1, recombinant mouse FAP; assay: Surface plasmon resonance binding to recombinant mouse FAP; settings: SPR, 2 μg/ml protein, FIGS. 13 and 14
# Protocol: The surface of the CM5 chip was activated with a 1:1 mixture of […] (N-hydroxysuccinimide) and […] (1-Ethyl-3-(3-dimethylaminopropyl) carbodiimide), and 25 μg/ml of anti-mouse IgG (Fc) antibody was immobilized for 400 seconds at a rate of 10 μl/min. The remaining active ester groups were blocked with 1 M ethanolamine. T1.01m, T1.02m and T1.03m were diluted to 2 μg/ml and reacted on the CM5 chip immobilized with the anti-mouse IgG (Fc) antibody. The recombinant mouse FAP was diluted to 200 nM in 1×HBS-EP+buffer solution and diluted by serial dilution. The diluted recombinant mouse FAP was reacted at a rate of 30 μl/min. The association and dissociation times were 180 seconds and 400 seconds, respectively. After the dissociation, stabilization was performed for 60 seconds, and then a regeneration was performed for 30 seconds with a 10 mM glycine pH 1.5 solution at a rate of 30 μl/min.
# [2] = system: FAP-overexpressing mouse colorectal cancer CT26; assay: Tumor growth inhibition by IL-12 mutation, FAP-overexpressing CT26, single i.v. dose; type: in vivo, BALB/c mice; settings: 10 μg i.v. once, FIG. 28
# Protocol: In order to evaluate the change in IL-12 activity according to the presence and extent of amino acid mutation, FAP-overexpressing mouse colorectal cancer CT26 was prepared by resuspending in PBS at a concentration of 5×10^5 cells/100 μl, and the tumor growth inhibitory ability was evaluated in a tumor animal model prepared by transplantation of the cells into 5-week-old female BALB/c mice.
# Specifically, when the size of the tumor in the model reached 100 mm^3, the mice were randomly divided into groups. 100 μl of phosphate buffered saline (PBS) was administered once via tail vein injection of the control, and each of T1.01m, T1.02m and T1.03m was intravenously administered once at a dose of 10 μg.
# [3] = system: HEK-Blue IL-12 cells; assay: Signaling ability in IL-12 recognizing cells (STAT4 inducible SEAP reporter); type: cell-based, human; settings: serial dilution from 4 nM, 24 hours, FIG. 18
# Protocol: The HEK-Blue IL-12 cell line transformed with the IL-12 receptor gene and the STAT4 inducible SEAP reporter gene into HEK293 cells, which are human embryonic kidney fibroblasts, was obtained from Invivogen (San Diego, USA). The HEK-Blue IL-12 cells were maintained in DMEM (GIBCO) containing 10% FBS (GIBCO), 100 μg/ml Normocin and 1×HEK-Blue selection.
# Specifically, the HEK-Blue IL-12 cell line, which is an IL-12 recognizing cell, was diluted to 2.8×10^5 cells/ml and dispensed at 180 μl/well. Recombinant human IL-12, T1.01m, T1.02m, T1.03m and T1.12m were suspended at 4 nM and diluted by serial dilution. HEK-Blue IL-12 cells were treated with the diluted recombinant human IL-12, T1.01m, T1.02m, T1.03m and T1.12m. After 24 hours of treatment, the cell supernatant was collected and mixed with QUANTI-Blue Solution (Invivogen) in a 96-well plate. The reporter expression level was measured at 620 nm using a spectrophotometer (Thermo Fisher).
# [4] = system: LLC1 lung cancer with NIH-3T3 overexpressing FAP; type: in vivo, C57BL/6J mice
# Protocol: Specifically, the NIH-3T3 cell line overexpressing FAP and the LLC1 cells were resuspended in Hanks' Balanced salt solution (HBSS, Gibco) at a concentration of 1×10^6 cells/50 μl, respectively, and the cells were mixed in a 1:1 ratio, and then 100 μl per each mouse was transplanted into the subcutaneous region of the right flank of 6-week-old C57BL/6J mice using a 1 cc syringe (25G).
# (§1) Next, for drug efficacy evaluation, when the size of the tumor reached 70 to 100 mm^3, the mice were randomly divided into groups. As the control, PBS was administered, and as the test group, T1.03m was intravenously administered once at a dose of 10 μg and 100 μg.
# [5] = system: FAP-overexpressing mouse colorectal cancer cell line CT26 cells; assay: Single administration of T1.03m in FAP-overexpressing CT26 model; type: in vivo, BALB/c mice
# Protocol: Specifically, the tumor cells were transplanted into the right dorsal flank side of 6-week-old BALB/c mice, and when the size of the tumor of the animal model reached 70 to 100 mm^3, the mice were randomly divided into groups and the administration was performed. As the control, PBS was administered, and as the test group, 100 μl of T1.03m was intravenously administered once at a dose of 2 μg, 10 μg and 100 μg. The size of the tumor was measured in the same manner as in Example 4.1.
# [6] = system: mouse FAP overexpressing B16F10 melanoma; assay: Melanoma model, mouse FAP overexpressing B16F10; type: in vivo, C57BL/6J mice; settings: during the test period
# Protocol: In order to identify the anticancer effect through immune activation of the fusion protein, mouse FAP was overexpressed in the mouse melanoma cell line B16F10, which is known to have little immune cell infiltration, and then transplanted into C57BL/6J mice, and the tumor growth inhibitory ability was evaluated.
# Specifically, the cells in culture were resuspended in Hanks' Balanced salt solution (HBSS, Gibco), and then 100 μl of 1×10^6 tumor cells per each mouse were transplanted into the subcutaneous region of the left the dorsal flank side of 6-week-old C57BL/6J mice.
# as §1
# [7] = system: LLC1 lung cancer with NIH-3T3 overexpressing FAP; assay: Cancer targeting efficacy, LLC1 co-injected with FAP overexpressing NIH-3T3; type: in vivo, mouse; settings: FIG. 32
# Excerpt: In order to compare the anticancer efficacy according to the cancer targeting of the dual antibody-type fusion protein in which the anti-FAP sequence structure and the IL-12 sequence structure form a Knob-in-Hole structure, the tumor growth inhibitory ability was identified in an animal model co-injected with NIH-3T3 cell overexpressing FAP, a mouse fibroblast cell line, and LLC1, a mouse lung cancer cell line, in a 1:1 ratio.
# Specifically, for drug efficacy evaluation, when the size of the tumor reached 70 to 100 mm^3, the mice were randomly divided into groups. As the control, PBS was intraperitoneally administered twice a week. The group administered with T1.16m or T1.17m alone, the group administered with T1.16m and T1.17m in combination (T1.16m+T1.17m), and the group administered with T1.03m were used as test groups to evaluate the tumor growth inhibitory ability. T1.16m and T1.17m, which are dimers of anti-FAP and IL-12, respectively, were intraperitoneally administered twice a week at a dose of 0.01 μg, and T1.03m, which is a monomer fusion protein, was intraperitoneally administered twice a week at a dose of 0.02 μg to observe the tumor growth inhibitory ability.
molecule,measurement,setting,value
"T1.03m: K&H bispecific: anti-mu FAP/mu IL-12 mut2, mu IgG2a DANG (seq18, seq19, seq22) (antibody) heavy: QVQLQQSGAELARPGASVNLSCKASGYTFTNNGINWLKQRTGQGLEWIGEIYPRSTNTLYNEKFKGKATLTADRSSNTAYMELRSLTSEDSAVYFCARTLTAPFAFWGQGTLVTVSAAKTTAPSVYPLAPVCGDTTGSSVTLGCLVKGYFPEPVTLTWNSGSLSSGVHTFPAVLQSDLYTLSSSVTVTSSTWPSQSITCNVAHPASSTKVDKKIEPRGPTIKPCPPCKCPAPNLLGGPSVFIFPPKIKDVLMISLSPIVTCVVVAVSEDDPDVQISWFVNNVEVHTAQTQTHREDYGSTLRVVSALPIQHQDWMSGKEFKCKVNNKDLPAPIERTISKPKGSVRAPQVYVLPPPEEEMTKKQVTLWCMVTDFMPEDIYVEWTNNGKTELNYKNTEPVLDSDGSYFMYSKLRVEKKNWVERNSYSCSVVHEGLHNHHTTKSFSRTPGK light: QIVLTQSPAIMSASPGEKVTMTCSASSGVNFMHWYQQKSGTSPKRWIFDTSKLASGVPARFSGSGSGTSYSLTISSMEAEDAATYYCQQWSFNPPTFGGGTKLEIKRADAAPTVSIFPPSSEQLTSGGASVVCFLNNFYPKDINVKWKIDGSERQNGVLNSWTDQDSKDSTYSMSSTLTLTKDEYERHNSYTCEATHKTSTSPIVKSFNRNEC MWELEKDVYVVEVDWTPDAPGETVNLTCDTPEEDDITWTSDQRHGVIGSGKTLTITVKEFLDAGQYTCHKGGETLSHSHLLLHKKENGIWSTEILKNFKNKTFLKCEAPNYSGRFTCSWLVQRNMDLKFNIKSSSSSPDSRAVTCGMASLSAEKVTLDQRDYEKYSVSCQEDVTCPTAEETLPIELALEARQQNKYENYSTSFFIRDIIKPDPPKNLQMKPLKNSQVEVSWEYPDSWSTPHSYFSLKFFVRIQAAAEKMAETEEGCNQKGAFLVEKTSTEVQCKGGNVCVQAQDRYYNSSCSKWACVPCRVRSGGGGSGGGGSGGGGSRVIPVSGPARCLSQSRNLLKTTDDMVKTAREKLKHYSCTAEDIDHEDITRDQTSTLKTCLPLELHKNESCLATRETSSTTRGSCLPPQKTSLMMTLCLGSIYEDLKMYQTEFQAINAALQNHNHQQIILDKGMLVAIDELMQSLNHNGETLRQKPPVGEADPYRVKMKLCILLHAFSTRVVTINRVMGYLSSAGGGGSGGGGSEPRGPTIKPCPPCKCPAPNLLGGPSVFIFPPKIKDVLMISLSPIVTCVVVAVSEDDPDVQISWFVNNVEVHTAQTQTHREDYGSTLRVVSALPIQHQDWMSGKEFKCKVNNKDLPAPIERTISKPKGSVRAPQVYVLPPPEEEMTKKQVTLSCAVTDFMPEDIYVEWTNNGKTELNYKNTEPVLDSDGSYFMVSKLRVEKKNWVERNSYSCSVVHEGLHNHHTTKSFSRTPGK",Binding to recombinant mouse FAP,[1],may bind to recombinant mouse FAP to specifically target FAP
same,tumor growth inhibitory ability compared to the control,"[2]; 15 days after administration, control PBS",excellent tumor growth inhibitory ability
same,tumor growth inhibitory ability compared to the group administered with T1.01m,[2],reduced
same,IL-12 recognition / STAT4 reporter gene expression (620 nm absorbance),[3],"IL-12 was recognized, and STAT4 expressed a reporter gene by inducing phosphorylation"
same,tumor growth inhibitory ability compared to the control,"[4]; 10 μg or 100 μg i.v. once, control PBS, FIG. 31",excellent tumor growth inhibitory ability
same,change in body weight,"[4]; mouse, in vivo",No change in body weight
same,tumor growth inhibitory ability compared to the control,"[5]; 2 μg, 10 μg and 100 μg i.v. once, control PBS, FIG. 29",high tumor growth inhibitory ability
same,change in body weight,[5]; during the test period,No change in body weight
same,change in body weight,[6],No change in body weight
same,tumor growth inhibitory ability compared to the control,"[7]; 0.02 μg i.p. twice a week, 10 days after administration, control PBS",excellent tumor growth inhibitory ability
same,tumor growth inhibitory ability compared with T1.16m or T1.17m alone and their combination,"[7]; T1.03m 0.02 μg, T1.16m and T1.17m 0.01 μg, i.p. twice a week",excellent tumor growth inhibitory ability
